Data published in the RNAGym collection of RNA variant scans (doi:10.7554/elife.80360).

B1: Hairpin Ribozyme (parent)
chain: GUCCUCUUUCACGUGCGCGUGAAAGAGAGAAGUGAACCAGAGAAACACACGUUGUGGUAUAUUACCUGGUA

Variants of: B1
Assay: self-cleavage, relative activity (ratio to wild type); higher = more cleavage; co-transcriptional

Variant | self-cleavage
GUCCUCUUUCACGUGCGCGUGAAAGAGAGAAGUGAACCAGAGAAACACACUUUGUGGUAUAUUACUUGGUA [G51U C66U] | 0.599
GUCCUCUUUCACGUGCGCGUGAAAGAGAGAAGUGAACCAGAGAAACACACAUAGUGGUAUAUUACCUGGUA [G51A U53A] | 0.869
GUCCUCUUUCACGUGCGCGUGAAAGAGAGAAGUGAACCAGAGAAACACACAUGGUGGUAUAUUACCUGGUA [G51A U53G] | 0.765
GUCCUCUUUCACGUGCGCGUGAAAGAGAGAAGUGAACCAGAGAAACACACUUUGUGGUAUAUUACCUGGUU [G51U A71U] | 0.793
GUCCUCUUUCACGUGCGCGUGAAAGAGAGAAGUGAACCAGAGAAACACACAUUCUGGUAUAUUACCUGGUA [G51A G54C] | 0.36
GUCCUCUUUCACGUGCGCGUGAAAGAGAGAAGUGAACCAGAGAAACACACCUUGGGGUAUAUUACCUGGUA [G51C U55G] | 0.268
GUCCUCUUUCACGUGCGCGUGAAAGAGAGAAGUGAACCAGAGAAACACACCUUGCGGUAUAUUACCUGGUA [G51C U55C] | 0.306
GUCCUCUUUCACGUGCGCGUGAAAGAGAGAAGUGAACCAGAGAAACACACUUUGUGGUAUAUUACCGGGUA [G51U U67G] | 0.384
GUCCUCUUUCACGUGCGCGUGAAAGAGAGAAGUGAACCAGAGAAACACACCUUGUGCUAUAUUACCUGGUA [G51C G57C] | 0.152
GUCCUCUUUCACGUGCGCGUGAAAGAGAGAAGUGAACCAGAGAAACACAUGUUGUGGUAAAUUACCUGGUA [C50U U60A] | 0.251
GUCCUCUUUCACGUGCGCGUGAAAGAGAGAAGUGAACCAGAGAAACACACCUUGUGGUAUAUUACCUGCUA [G51C G69C] | 0.28
GUCCUCUUUCACGUGCGCGUGAAAGAGAGAAGUGAACCAGAGAAACACAUGUUGUGGUUUAUUACCUGGUA [C50U A59U] | 0.272
GUCCUCUUUCACGUGCGCGUGAAAGAGAGAAGUGAACCAGAGAAACACAUGUUGUGGUAUAUUACCUGGAA [C50U U70A] | 0.266
GUCCUCUUUCACGUGCGCGUGAAAGAGAGAAGUGAACCAGAGAAACACAUGUUGUGGUAUAUUACCUGUUA [C50U G69U] | 0.128
GUCCUCUUUCACGUGCGCGUGAAAGAGAGAAGUGAACCAGAGAAACACACAUUGUGGGAUAUUACCUGGUA [G51A U58G] | 1.12
GUCCUCUUUCACGUGCGCGUGAAAGAGAGAAGUGAACCAGAGAAACACACAUUGUUGUAUAUUACCUGGUA [G51A G56U] | 0.166
GUCCUCUUUCACGUGCGCGUGAAAGAGAGAAGUGAACCAGAGAAACACACAUUGUGGUAUAUUACUUGGUA [G51A C66U] | 0.574
GUCCUCUUUCACGUGCGCGUGAAAGAGAGAAGUGAACCAGAGAAACACAUGGUGUGGUAUAUUACCUGGUA [C50U U52G] | 0.318
GUCCUCUUUCACGUGCGCGUGAAAGAGAGAAGUGAACCAGAGAAACACACUUUGUGGUAUAUUUCCUGGUA [G51U A64U] | 0.167

Variant | self-cleavage
GUCCUCUUUCACGUGCGCGUGAAAGAGAGAAGUGAACCAGAGAAACACACUUUGUGGUAUAUAACCUGGUA [G51U U63A] | 0.215
GUCCUCUUUCACGUGCGCGUGAAAGAGAGAAGUGAACCAGAGAAACACACUUUGUGGUAUAUGACCUGGUA [G51U U63G] | 0.16
GUCCUCUUUCACGUGCGCGUGAAAGAGAGAAGUGAACCAGAGAAACACAUCUUGUGGUAUAUUACCUGGUA [C50U G51C] | 0.256
GUCCUCUUUCACGUGCGCGUGAAAGAGAGAAGUGAACCAGAGAAACACAUGUUGUGGUAUAUUAACUGGUA [C50U C65A] | 0.359
GUCCUCUUUCACGUGCGCGUGAAAGAGAGAAGUGAACCAGAGAAACACACGAUGUGGUAUAUUUCCUGGUA [U52A A64U] | 0.177
GUCCUCUUUCACGUGCGCGUGAAAGAGAGAAGUGAACCAGAGAAACACACCUUGUGGUAAAUUACCUGGUA [G51C U60A] | 0.589
GUCCUCUUUCACGUGCGCGUGAAAGAGAGAAGUGAACCAGAGAAACACACCUUGUGGUACAUUACCUGGUA [G51C U60C] | 1.23
GUCCUCUUUCACGUGCGCGUGAAAGAGAGAAGUGAACCAGAGAAACACACAUUGUGUUAUAUUACCUGGUA [G51A G57U] | 0.299
GUCCUCUUUCACGUGCGCGUGAAAGAGAGAAGUGAACCAGAGAAACACACAUUGUGGUAUCUUACCUGGUA [G51A A61C] | 0.0891
GUCCUCUUUCACGUGCGCGUGAAAGAGAGAAGUGAACCAGAGAAACACACCUUGUGGUAUAUUGCCUGGUA [G51C A64G] | 0.521
GUCCUCUUUCACGUGCGCGUGAAAGAGAGAAGUGAACCAGAGAAACACACCUUGUGGUAUAUUCCCUGGUA [G51C A64C] | 0.156
GUCCUCUUUCACGUGCGCGUGAAAGAGAGAAGUGAACCAGAGAAACACACUUUGCGGUAUAUUACCUGGUA [G51U U55C] | 0.245
GUCCUCUUUCACGUGCGCGUGAAAGAGAGAAGUGAACCAGAGAAACACACUUUGAGGUAUAUUACCUGGUA [G51U U55A] | 0.302
GUCCUCUUUCACGUGCGCGUGAAAGAGAGAAGUGAACCAGAGAAACACAUGUUGUGAUAUAUUACCUGGUA [C50U G57A] | 0.112
GUCCUCUUUCACGUGCGCGUGAAAGAGAGAAGUGAACCAGAGAAACACACGAUGUGGUAUAUUACCUGGUC [U52A A71C] | 1.46
GUCCUCUUUCACGUGCGCGUGAAAGAGAGAAGUGAACCAGAGAAACACACGAUGUGGUAUAUUACCUGGUA [U52A] | 1.03
GUCCUCUUUCACGUGCGCGUGAAAGAGAGAAGUGAACCAGAGAAACACACCUUGUGGUAUAUUAGCUGGUA [G51C C65G] | 0.205
GUCCUCUUUCACGUGCGCGUGAAAGAGAGAAGUGAACCAGAGAAACACAUGUUGUGGUAUAUUACCUGGUC [C50U A71C] | 0.925
GUCCUCUUUCACGUGCGCGUGAAAGAGAGAAGUGAACCAGAGAAACACAUGUUGUGGUAUAUUACCUGGUU [C50U A71U] | 0.211
